{"source": "patent US20230340151A1", "about": "(Pfizer, published 2023)", "binders": {"B1": {"name": "GUCY2C-1608 (bispecific antibody)", "chain 1": "DIQLTQSPSSLSASVGDRVTITCRASESVDYYGSSLLQWYQQKPGKAPKLLIYAASKLASGVPSRFSGSGSGTDFTLTISSLQPEDFATYYCQQTRKAYTFGQGTKLEIKGGGSGGGGEVQLVESGGGLVQPGGSLRLSCAASGFTFSDYYMTWVRQAPGKGLEWVAFIRNQARGYTSDHNPSVKGRFTISRDNAKNSLYLQMNSLRAEDTAVYYCARDRPSYYVLDYWGQGTTVTVSSGCPPCPAPEAAGAPSVFLFPPKPKDTLMISRTPEVTCVVVDVSHEDPEVKFNWYVDGVEVHNAKTKPREEQYNSTYRVVSVLTVLHQDWLNGKEYKCKVSNKALPAPIEKTISKAKGQPREPQVCTLPPSREEMTKNQVSLWCLVKGFYPSDIAVEWESNGQPENNYKTTPPVLDSDGSFFLYSKLTVDKSRWQQGNVFSCSVMHEALHNHYTQKSLSLSPG", "chain 2": "DIQMTQSPSSLSASVGDRVTITCTSSQSLFNVRSQKNYLAWYQQKPGKAPKLLIYWASTRESGVPSRFSGSGSGTDFTLTISSLQPEDFATYYCKQSYDLFTFGGGTKVEIKGGGGSGGGGEVQLVESGGGLVQPGGSLRLSCAASGFTFSSYWMHWVRQAPGKGLEWIGEIKPSNELTNVHEKFKDRFTISVDKAKNSAYLQMNSLRAEDTAVYYCTRTITTTEGYWFFDVWGQGTLVTVSSGCPPCPAPEAAGAPSVFLFPPKPKDTLMISRTPEVTCVVVDVSHEDPEVKFNWYVDGVEVHNAKTKPREEQYNSTYRVVSVLTVLHQDWLNGKEYKCKVSNKALPAPIEKTISKAKGQPREPQVYTLPPCREEMTKNQVSLSCAVKGFYPSDIAVEWESNGQPENNYKTTPPVLDSDGSFFLVSKLTVDKSRWQQGNVFSCSVMHEALHNHYTQKSLSLSPG", "notes": "also called GUCY2c CD3 bispecific"}}, "test_in_all_cases": "peptide DELFIA ELISA;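 further: epitope mapping using overlapping 20-mer GUCY2C peptides covering residues 1-440, extracellular into transmembrane domain, coated at 20 µg/ml as target antigen and probed with antibodies or GUCY2C-CD3 bispecifics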", "key": {"GUCY2C_ECD Peptide 4": {"target": "T1, GUCY2C_ECD Peptide 4 (human)", "T1 peptide": "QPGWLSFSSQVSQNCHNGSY", "protocol": "(§1) Arrays were reconstituted with acetonitrile to 100 μg/ml and were then further diluted to 20 μg/ml with sodium carbonate/bicarbonate buffer. Purified antibodies or GUCY2c-CD3 bispecifics were then tested by Delfia ELISA for binding to the different peptides using Delfia ELISA methods previously discussed, with diluted peptides used as the target antigen."}, "GUCY2C_ECD Peptide 5": {"target": "T2, GUCY2C_ECD Peptide 5 (human)", "T2 peptide": "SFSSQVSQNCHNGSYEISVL", "protocol": "as §1"}, "GUCY2C_ECD Peptide 10": {"target": "T3, GUCY2C_ECD Peptide 10 (human)", "T3 peptide": "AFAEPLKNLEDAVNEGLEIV", "protocol": "as §1"}, "GUCY2C_ECD Peptide 12": {"target": "T4, GUCY2C_ECD Peptide 12 (human)", "T4 peptide": "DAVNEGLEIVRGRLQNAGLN", "protocol": "as §1"}, "GUCY2C_ECD Peptide 13": {"target": "T5, GUCY2C_ECD Peptide 13 (human)", "T5 peptide": "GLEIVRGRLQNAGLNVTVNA", "protocol": "as §1"}, "GUCY2C_ECD Peptide 14": {"target": "T6, GUCY2C_ECD Peptide 14 (human)", "T6 peptide": "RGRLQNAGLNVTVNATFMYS", "protocol": "as §1"}, "GUCY2C_ECD Peptide 16": {"target": "T7, GUCY2C_ECD Peptide 16 (human)", "T7 peptide": "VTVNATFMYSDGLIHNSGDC", "protocol": "as §1"}, "GUCY2C_ECD Peptide 17": {"target": "T8, GUCY2C_ECD Peptide 17 (human)", "T8 peptide": "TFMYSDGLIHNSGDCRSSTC", "protocol": "as §1"}, "GUCY2C_ECD Peptide 19": {"target": "T9, GUCY2C_ECD Peptide 19 (human)", "T9 construct": "also called GUCY2c peptide 19; GUCY2c-ECD peptide number 19", "T9 peptide": "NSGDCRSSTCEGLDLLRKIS", "protocol": "as §1"}, "GUCY2C_ECD Peptide 20": {"target": "T10, GUCY2C_ECD Peptide 20 (human)", "T10 peptide": "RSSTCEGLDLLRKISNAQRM", "protocol": "as §1"}, "GUCY2C_ECD Peptide 22": {"target": "T11, GUCY2C_ECD Peptide 22 (human)", "T11 peptide": "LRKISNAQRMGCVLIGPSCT", "protocol": "as §1"}, "GUCY2C_ECD Peptide 24": {"target": "T12, GUCY2C_ECD Peptide 24 (human)", "T12 peptide": "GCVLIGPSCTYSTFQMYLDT", "protocol": "as §1"}, "GUCY2C_ECD Peptide 26": {"target": "T13, GUCY2C_ECD Peptide 26 (human)", "T13 peptide": "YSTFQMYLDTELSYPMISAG", "protocol": "as §1"}, "GUCY2C_ECD Peptide 29": {"target": "T14, GUCY2C_ECD Peptide 29 (human)", "T14 peptide": "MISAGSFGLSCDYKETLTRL", "protocol": "as §1"}, "GUCY2C_ECD Peptide 35": {"target": "T15, GUCY2C_ECD Peptide 35 (human)", "T15 peptide": "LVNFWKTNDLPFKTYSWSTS", "protocol": "as §1"}, "GUCY2C_ECD Peptide 37": {"target": "T16, GUCY2C_ECD Peptide 37 (human)", "T16 peptide": "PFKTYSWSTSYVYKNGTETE", "protocol": "as §1"}, "GUCY2C_ECD Peptide 41": {"target": "T17, GUCY2C_ECD Peptide 41 (human)", "T17 peptide": "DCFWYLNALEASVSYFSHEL", "protocol": "as §1"}, "GUCY2C_ECD Peptide 46": {"target": "T18, GUCY2C_ECD Peptide 46 (human)", "T18 peptide": "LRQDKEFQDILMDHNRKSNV", "protocol": "as §1"}, "GUCY2C_ECD Peptide 51": {"target": "T19, GUCY2C_ECD Peptide 51 (human)", "T19 peptide": "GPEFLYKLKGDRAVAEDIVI", "protocol": "as §1"}, "GUCY2C_ECD Peptide 52": {"target": "T20, GUCY2C_ECD Peptide 52 (human)", "T20 peptide": "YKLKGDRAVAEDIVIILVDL", "protocol": "as §1"}, "GUCY2C_ECD Peptide 53": {"target": "T21, GUCY2C_ECD Peptide 53 (human)", "T21 peptide": "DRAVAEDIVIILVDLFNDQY", "protocol": "as §1"}, "GUCY2C_ECD Peptide 56": {"target": "T22, GUCY2C_ECD Peptide 56 (human)", "T22 peptide": "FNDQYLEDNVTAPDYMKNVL", "protocol": "as §1"}, "GUCY2C_ECD Peptide 57": {"target": "T23, GUCY2C_ECD Peptide 57 (human)", "T23 peptide": "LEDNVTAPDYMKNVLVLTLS", "protocol": "as §1"}, "GUCY2C_ECD Peptide 59": {"target": "T24, GUCY2C_ECD Peptide 59 (human)", "T24 peptide": "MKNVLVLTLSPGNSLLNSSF", "protocol": "as §1"}, "GUCY2C_ECD Peptide 62": {"target": "T25, GUCY2C_ECD Peptide 62 (human)", "T25 peptide": "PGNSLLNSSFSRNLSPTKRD", "protocol": "as §1"}, "GUCY2C_ECD Peptide 65": {"target": "T26, GUCY2C_ECD Peptide 65 (human)", "T26 peptide": "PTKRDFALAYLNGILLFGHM", "protocol": "as §1"}, "GUCY2C_ECD Peptide 71": {"target": "T27, GUCY2C_ECD Peptide 71 (human)", "T27 peptide": "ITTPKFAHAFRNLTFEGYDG", "protocol": "as §1"}, "GUCY2C_ECD Peptide 72": {"target": "T28, GUCY2C_ECD Peptide 72 (human)", "T28 peptide": "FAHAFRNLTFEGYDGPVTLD", "protocol": "as §1"}, "GUCY2C_ECD Peptide 73": {"target": "T29, GUCY2C_ECD Peptide 73 (human)", "T29 peptide": "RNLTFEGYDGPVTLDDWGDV", "protocol": "as §1"}, "GUCY2C_ECD Peptide 74": {"target": "T30, GUCY2C_ECD Peptide 74 (human)", "T30 peptide": "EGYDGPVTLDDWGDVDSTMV", "protocol": "as §1"}, "GUCY2C_ECD Peptide 75": {"target": "T31, GUCY2C_ECD Peptide 75 (human)", "T31 peptide": "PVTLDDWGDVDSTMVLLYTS", "protocol": "as §1"}, "GUCY2C_ECD Peptide 78": {"target": "T32, GUCY2C_ECD Peptide 78 (human)", "T32 peptide": "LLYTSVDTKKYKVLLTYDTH", "protocol": "as §1"}, "GUCY2C_ECD Peptide 79": {"target": "T33, GUCY2C_ECD Peptide 79 (human)", "T33 peptide": "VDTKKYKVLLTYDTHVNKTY", "protocol": "as §1"}, "GUCY2C_ECD Peptide 80": {"target": "T34, GUCY2C_ECD Peptide 80 (human)", "T34 peptide": "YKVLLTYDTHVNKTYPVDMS", "protocol": "as §1"}, "GUCY2C_ECD Peptide 83": {"target": "T35, GUCY2C_ECD Peptide 83 (human)", "T35 peptide": "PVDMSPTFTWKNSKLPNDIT", "protocol": "as §1"}, "GUCY2C_ECD Peptide 88": {"target": "T36, GUCY2C_ECD Peptide 88 (human)", "T36 peptide": "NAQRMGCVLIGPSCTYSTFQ", "protocol": "as §1"}}, "data": [{"binder": "B1", "values": [{"measurement": "DELFIA TRF", "setting": "GUCY2C_ECD Peptide 4", "value": 125}, {"measurement": "DELFIA TRF", "setting": "GUCY2C_ECD Peptide 5", "value": 109}, {"measurement": "DELFIA TRF", "setting": "GUCY2C_ECD Peptide 10", "value": 105}, {"measurement": "DELFIA TRF", "setting": "GUCY2C_ECD Peptide 12", "value": 259}, {"measurement": "DELFIA TRF", "setting": "GUCY2C_ECD Peptide 13", "value": 102}, {"measurement": "DELFIA TRF", "setting": "GUCY2C_ECD Peptide 14", "value": 97}, {"measurement": "DELFIA TRF", "setting": "GUCY2C_ECD Peptide 16", "value": 105}, {"measurement": "DELFIA TRF", "setting": "GUCY2C_ECD Peptide 17", "value": 112}, {"measurement": "DELFIA TRF", "setting": "GUCY2C_ECD Peptide 19", "value": 19200}, {"measurement": "DELFIA TRF", "setting": "GUCY2C_ECD Peptide 20", "value": 3210}, {"measurement": "DELFIA TRF", "setting": "GUCY2C_ECD Peptide 22", "value": 93.5}, {"measurement": "DELFIA TRF", "setting": "GUCY2C_ECD Peptide 24", "value": 119}, {"measurement": "DELFIA TRF", "setting": "GUCY2C_ECD Peptide 26", "value": 104}, {"measurement": "DELFIA TRF", "setting": "GUCY2C_ECD Peptide 29", "value": 101}, {"measurement": "DELFIA TRF", "setting": "GUCY2C_ECD Peptide 35", "value": 108}, {"measurement": "DELFIA TRF", "setting": "GUCY2C_ECD Peptide 37", "value": 107}, {"measurement": "DELFIA TRF", "setting": "GUCY2C_ECD Peptide 41", "value": 161}, {"measurement": "DELFIA TRF", "setting": "GUCY2C_ECD Peptide 46", "value": 106}, {"measurement": "DELFIA TRF", "setting": "GUCY2C_ECD Peptide 51", "value": 96.8}, {"measurement": "DELFIA TRF", "setting": "GUCY2C_ECD Peptide 52", "value": 104}, {"measurement": "DELFIA TRF", "setting": "GUCY2C_ECD Peptide 53", "value": 87.8}, {"measurement": "DELFIA TRF", "setting": "GUCY2C_ECD Peptide 56", "value": 81}, {"measurement": "DELFIA TRF", "setting": "GUCY2C_ECD Peptide 57", "value": 99.8}, {"measurement": "DELFIA TRF", "setting": "GUCY2C_ECD Peptide 59", "value": 135}, {"measurement": "DELFIA TRF", "setting": "GUCY2C_ECD Peptide 62", "value": 91.2}, {"measurement": "DELFIA TRF", "setting": "GUCY2C_ECD Peptide 65", "value": 103}, {"measurement": "DELFIA TRF", "setting": "GUCY2C_ECD Peptide 71", "value": 105}, {"measurement": "DELFIA TRF", "setting": "GUCY2C_ECD Peptide 72", "value": 116}, {"measurement": "DELFIA TRF", "setting": "GUCY2C_ECD Peptide 73", "value": 116}, {"measurement": "DELFIA TRF", "setting": "GUCY2C_ECD Peptide 74", "value": 100}, {"measurement": "DELFIA TRF", "setting": "GUCY2C_ECD Peptide 75", "value": 88.2}, {"measurement": "DELFIA TRF", "setting": "GUCY2C_ECD Peptide 78", "value": 97.8}, {"measurement": "DELFIA TRF", "setting": "GUCY2C_ECD Peptide 79", "value": 130}, {"measurement": "DELFIA TRF", "setting": "GUCY2C_ECD Peptide 80", "value": 1470}, {"measurement": "DELFIA TRF", "setting": "GUCY2C_ECD Peptide 83", "value": 85.8}, {"measurement": "DELFIA TRF", "setting": "GUCY2C_ECD Peptide 88", "value": 120}]}]}
